Our source for the self-cleavage values is the RNAGym collection of RNA variant scans (doi:10.7554/elife.80360).

The chains are these.
B1: Twister Ribozyme (parent)
chain: AACACUGCCAAUGCCGGUCCCAAGCCCGGAUAAAAGUGGAGGGGGCGG

In the series the parent is B1. In words: self-cleavage, relative activity (ratio to wild type); higher = more cleavage; co-transcriptional.
As for AUCACUGCCAAUGCCGGUCCCAAGCCCGGAUAAAAGUAGAGGGGGCGG, the self-cleavage turned out to be 0.789. Take CACACUGCCAAUGCCGGUCCCAAUCCCGGAUAAAAGUGGAGGGGGCGG: the self-cleavage is 0.111.

Take AACACUGACAAUGCCGGUCCCAAGCCCGGAUACAAGUGGAGGGGGCGG: the self-cleavage worked out at 0.279. Under AACACUGCCAAUGCCGGUCCCAAGCCCGGAUAAAAUUGAAGGGGGCGG stands 0.172; under AACACUGCCAAUGCCGGUACCAAGCCCGGAUAAAGGUGGAGGGGGCGG, 0.095; under AACACUACCAAUGCCGGUCCCAAGCCCGGAUAAAAGUGGAGGGGGGGG, 0.414.

Take AACACUGCCAAUGCCGGUCCCAAGCCCUGAUAAAAGUGGAGGGGUCGG: the self-cleavage is 0.375. With AACACUGCCAAUUCCGGUCCCAAGCCUGGAUAAAAGUGGAGGGGGCGG, the self-cleavage stood at 0.212.

On to AACACUGCCAAUGCCGGUCCGAAGCCCGGAUAAAAGUGGAGGGGGCGC, for which the self-cleavage was 0.0934. As to AUCACUGCCCAUGCCGGUCCCAAGCCCGGAUAAAAGUGGAGGGGGCGG, the self-cleavage was 0.449. Consider AACACUGCCAAUGCCGGUCCCACGCCCGAAUAAAAGUGGAGGGGGCGG, for which the self-cleavage came to 0.196. Under AACACUGCCAAUGCCGGUCCCAAGCCCGGAUAAAAGCGGAGGGUGCGG stands 0.768. On to AACACUGCCAAUGCCGGUCUCAUGCCCGGAUAAAAGUGGAGGGGGCGG, for which the self-cleavage stood at 0.17. In the case of AACACUGCCAUAGCCGGUCCCAAGCCCGGAUAAAAGUGGAGGGGGCGG, the self-cleavage stood at 0.95.

For AACACUGCCAAUGCCGGUCCCAAGCCCGCAUAAAAGUGGAGGGGGCGG, the self-cleavage is 0.858. Under AACACUGCCAACGCCGGUCCCAAGCCCGUAUAAAAGUGGAGGGGGCGG stands 0.746; under AACAAUGCCAAUGCCGGUCCCAAGCCCGGAUAAAAGUGGAGAGGGCGG, 0.132; under AACACUGCUAAUGCCGGUCCCAAGCCCGGAUAAAAGCGGAGGGGGCGG, 0.122.

In the case of AACACUGCCAAUCCCGGUCCCAAGCCCGGAUAUAAGUGGAGGGGGCGG, the self-cleavage was 0.335. For the variant AACACUGCCAGUGGCGGUCCCAAGCCCGGAUAAAAGUGGAGGGGGCGG, the self-cleavage turned out to be 0.133.

AACAUUGCCAAUGCCGGUACCAAGCCCGGAUAAAAGUGGAGGGGGCGG: the self-cleavage worked out at 0.145. Under AACACUGCCUAUGCCGGUCCCAAGCCCGGAUAAAAGCGGAGGGGGCGG stands 0.667; under CACACGGCCAAUGCCGGUCCCAAGCCCGGAUAAAAGUGGAGGGGGCGG, 0.0831; under AACACUGCCAAUGCCGUUCCCAAGCCCGGAUCAAAGUGGAGGGGGCGG, 0.263. Under AACACAGCCAAUGCCGGUUCCAAGCCCGGAUAAAAGUGGAGGGGGCGG stands 0.539; under AAAAGUGCCAAUGCCGGUCCCAAGCCCGGAUAAAAGUGGAGGGGGCGG, 0.265; under AACACUGCCUAUGCCGGUCCCAAGUCCGGAUAAAAGUGGAGGGGGCGG, 0.731. Take AACCCUGCCAAUACCGGUCCCAAGCCCGGAUAAAAGUGGAGGGGGCGG: the self-cleavage was 0.0606.

With AACACUGCCAAUGCCGGUCUCAAGCCCGGAUAAAAAUGGAGGGGGCGG, the self-cleavage was 0.216. As for AACAAUGCCAAUGCCGGUCCCAAGCCCGGAUAAAAGUGAAGGGGGCGG, the figure is 0.161; as for AACACUGCCAAUGCCGGUCCCAAGCCCUGAUAAAAGUGGAGGCGGCGG, 0.151. As for AACAUUGCCAAUGCCGGUCCCAAGCCCGGAUCAAAGUGGAGGGGGCGG, the self-cleavage was 0.887. For AACAAUGCCAAUGCCGGUCCCAAGCCCCGAUAAAAGUGGAGGGGGCGG, the self-cleavage amounted to 0.229. As for AACACUGCCAAUGCCGGUCCCAAGCCCGGAUAAAUGUAGAGGGGGCGG, the self-cleavage was determined as 0.925. Take AACAAUGCCAAUGCCGGUCCCAAGCCCGGAUAAAAGUGGAGGGUGCGG: the self-cleavage turned out to be 0.532. For the variant AACACUGCCAAUGGCGGUCCCAAGUCCGGAUAAAAGUGGAGGGGGCGG, the self-cleavage worked out at 0.0566. AACACUGCCAAUGCCGGUCCCAAGCCCAGAUCAAAGUGGAGGGGGCGG: the self-cleavage is 0.941.

Consider AACACUGCCAGUGCCGGUCCCAAGCCCGGAUACAAGUGGAGGGGGCGG, for which the self-cleavage amounted to 0.836. As to AACACUGCCAAUGCCGGUCCCAAGCCCAGAUAAAAGUGGAGGGCGCGG, the self-cleavage is 0.718.

Regarding AACACUGCCAAUGCCGGUCCCAAGCCCGGAUAAAAGCGGAGGGGGCGA, the self-cleavage was 0.639.

As to AACACUGCCAUUGCCGGUCCCAAGCCCGGAUAAAAGUCGAGGGGGCGG, the self-cleavage was found to be 1.08. As for AACACUGCCAAUGCCGGUCCCAAGCCCUGAUAAAAGUGUAGGGGGCGG, the figure is 0.177; as for AACGCUGCCAAUGCCGGUCCCUAGCCCGGAUAAAAGUGGAGGGGGCGG, 0.69. As for AACACUGCCAAUGGCGGUCCCAAGCCCGGAUAAAAGCGGAGGGGGCGG, the figure is 0.0984. On to AACACUGCGCAUGCCGGUCCCAAGCCCGGAUAAAAGUGGAGGGGGCGG, for which the self-cleavage was 0.857. Consider AACACUGCGUAUGCCGGUCCCAAGCCCGGAUAAAAGUGGAGGGGGCGG, for which the self-cleavage came to 0.859. As to AACUCAGCCAAUGCCGGUCCCAAGCCCGGAUAAAAGUGGAGGGGGCGG, the self-cleavage stood at 0.0622.

As for AACACUGCCAGUGCCGGUCCCAAGCCCGGAUAAAAGUGGAGGAGGCGG, the self-cleavage is 0.234.

With AACACUGCCAAUGCCGGUCCCAAUCCCGGAUAAAAUUGGAGGGGGCGG, the self-cleavage is 0.0805. As for AACACUGCCAAUGCCGGUCCCAAGCCCGGAUAAAAGUGCAGGGGGUGG, the self-cleavage stood at 0.14. Consider AACACUGCCAAUGCCGGUACCAAGCCCGGAUAAAAGUGGAGGCGGCGG, for which the self-cleavage was found to be 0.317.

Regarding AACACUGCCAAUGCCGGUCCCAAGCCAGGAUAAAAGUGGAGGGGACGG, the self-cleavage turned out to be 0.334. In the case of AACACUGCCAAUGCCGGUCUCAAGCCCGGAUAAAAGUGGAGGUGGCGG, the self-cleavage was determined as 0.146. AACACUGCCAAUGCCGGUCGAAAGCCCGGAUAAAAGUGGAGGGGGCGG: the self-cleavage turned out to be 0.0754.
